This note sets out measurements from PMC2660430.

The target in the assay is PfSAHH (recombinant S-adenosyl-L-homocysteine hydrolase), P50250. In words: SPR. As to conditions: chain shown with the change; Maximum response at end of analyte injection; SAHH on the sensor surface oxidized with 0.5 mM DTNB; 30 µl of analyte, 10 µM in HBS buffer; pre-injection …; parent: est. 93; read off a plot.
Sequence of PfSAHH (recombinant S-adenosyl-L-homocysteine hydrolase), P50250 (P50250 whole entry): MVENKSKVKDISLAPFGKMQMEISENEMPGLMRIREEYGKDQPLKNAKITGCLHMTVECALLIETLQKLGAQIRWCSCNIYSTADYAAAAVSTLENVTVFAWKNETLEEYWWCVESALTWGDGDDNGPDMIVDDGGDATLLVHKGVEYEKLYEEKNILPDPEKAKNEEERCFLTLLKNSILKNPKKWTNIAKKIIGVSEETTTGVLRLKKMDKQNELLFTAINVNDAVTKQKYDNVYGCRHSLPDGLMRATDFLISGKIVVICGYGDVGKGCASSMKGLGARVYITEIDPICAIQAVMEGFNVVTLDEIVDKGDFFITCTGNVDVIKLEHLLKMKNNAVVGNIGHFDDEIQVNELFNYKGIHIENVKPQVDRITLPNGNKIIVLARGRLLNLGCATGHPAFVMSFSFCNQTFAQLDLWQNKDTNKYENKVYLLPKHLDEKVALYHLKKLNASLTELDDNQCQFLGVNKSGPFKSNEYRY

B1: PfGrx1 (wild type glutaredoxin) C32S (protein)
chain: MAGTSEAVKKWVNKIIEENIIAVFAKTECPYSIKAISILKGYNLNSHMHVENIEKNPDMANIQAYLKELTGKSSVPRIFINKDVVGGCDDLVKENDEGKLKERLQKLGLVN
For the molecule B1, the response (RD (normalized)) was 98.

B2: PfGrx1 (wild type glutaredoxin) C29S; C32S (protein)
chain: MAGTSEAVKKWVNKIIEENIIAVFAKTESPYSIKAISILKGYNLNSHMHVENIEKNPDMANIQAYLKELTGKSSVPRIFINKDVVGGCDDLVKENDEGKLKERLQKLGLVN
Take B2: the response (RD (normalized)) was determined as 59.
